Among the data in paper PMC4840315 are response values, retold here.

The target in test [1] is insulin. The experiment in a line: ligand dot blot (densitometric analysis of dots). The note with it: 2.5 μl (0.09 mg/ml) protein dotted on nitrocellulose; 1 μg/ml insulin, 4 °C overnight; parent: est. 0.12; read off a plot.
Test [2] deals with insulin. The experiment in a line: pull-down (Ni-Sepharose 6 column, Western blot with anti-insulin antibody, densitometric analysis of bands). As to conditions: 0.1 mg His6-tagged-IGFBP7 mixed with 0.5 mg insulin; parent: est. 0.20; read off a plot. For orientation: In western blotting, separated proteins are transferred to a membrane and probed.

With “wild-type IGFBP7 (insulin-like growth factor binding protein 7), His6-tagged (from UniProt Q16270) H200F”, the response with insulin [1] stood at 0.11 Gradation.

With “wild-type IGFBP7 (insulin-like growth factor binding protein 7), His6-tagged (from UniProt Q16270) R198E”, in the test with insulin [1], the response amounted to 0.53 Gradation. For the substance “wild-type IGFBP7 (insulin-like growth factor binding protein 7), His6-tagged (from UniProt Q16270) R198I; H200F”, the response in the test with insulin [2] was determined as 0.1 Gradation; with insulin [1] it was 0.025 Gradation.
